Assay results taken from patent publication US20150355179A1, “CDKACT BIOSENSORS-FLUORESCENT POLYPEPTIDE TO PROBE THE ACTIVITY OF CDK/CYCLIN KINASES IN VITRO, IN CELLULO AND IN VIVO” (CENTRE NATIONAL DE LA RECHERCHE SCIENTIFIQUE (CNRS), priority 2012, published 2015).

Columns and labels:
[1] = molecular target: Plk3 (Homo sapiens, UniProt Q9H4B4); experiment: Real-time fluorescence kinase assay with Plk3 kinase (specificity); assay type: biochemical; details: 25 nM CDKACTH1, 25, 50, 75 nM Plk3
Description: (§1) Fluorescence kinase assays were performed in 96-well plates in a thermostated chamber (Polarstar BMG) at 30° C. in 200 ul phosphate buffer saline, pH 7.2, 150 mM NaCl, in the presence of 5 mM MgCl2, 0.5 mM ATP, except when stated otherwise. The fluorescence of Cy3-labelled CDKACTH1 with recombinant CDK/Cyclin complexes or with cell extracts was monitored over time. Changes in Cy3 fluorescence emission were recorded at 590 nm following excitation at 544 nm. In all experiments, the fluorescence of CDKACTH1-Cy3 alone was substracted from all other values. Data analysis and curve fitting were performed using the GraFit Software (Erathicus Ltd).
(§2) To address the issue of specificity, we asked whether other kinases could phosphorylate and thereby affect the fluorescence of CDKACTH1. We first examined CDK1/Cyclin B and CDK4/Cyclin D (FIGS. 3A and B).

[2] = Solubility of the biosensor after removal of the GST tag; assay type: physicochemical
Description: The […]1 biosensor was engineered by cloning residues 367-603 of PBD from Plk1 into the pGex6[…]. […]1 was expressed in E. coli, then purified on High performance glutathione Sepharose in 50 mM TrisHCl, pH 7.4, 150 mM NaCl, then further purified by Gel Filtration chromatography. […] Following purification, […]1 was labelled with a 10fold molar excess Cy3-maleimide and further purified on NAPS columns to remove excess label.

[3] = molecular target: T1, GST-CDK2/Cyclin A (Homo sapiens, UniProt P24941); experiment: Radioactive endpoint kinase assay with GST-CDK2/Cyclin A; assay type: biochemical; details: radioactive gamma-ATP, 30 min at 30° C., histone H1 positive control
T1 construct: made in house; host or cells: E. coli
Description: In order to characterize […]1 biosensor in vitro, we first asked whether it could be used to monitor recombinant kinase activity in a real-time assay. […] A kinase assay was performed by addition of GST-CDK2/CIV complexed with His-Cyclin A to […]1, in the presence of 0.5 mM ATP and 5 mM MgCl2, and […]1 fluorescence was monitored over time. Phosphorylation of 5 uM […]1 or histone H1 were performed in 50 mM Tris pH 7.5, 5 mM MgCl2, 0.5 mM ATP, and 33P-gamma-ATP for 30 min at 30° C. The reaction was stopped by addition of Laemmli buffer, and samples were run on SDS-PAGE then exposed by autoradiography.

[4] = molecular target: T2, CDK1/Cyclin B (Homo sapiens, UniProt P06493); experiment: Real-time fluorescence kinase assay with recombinant CDK1/Cyclin B; assay type: biochemical
T2 construct: made in house; host or cells: E. coli
T2 sequence (P06493 whole entry, species assumed): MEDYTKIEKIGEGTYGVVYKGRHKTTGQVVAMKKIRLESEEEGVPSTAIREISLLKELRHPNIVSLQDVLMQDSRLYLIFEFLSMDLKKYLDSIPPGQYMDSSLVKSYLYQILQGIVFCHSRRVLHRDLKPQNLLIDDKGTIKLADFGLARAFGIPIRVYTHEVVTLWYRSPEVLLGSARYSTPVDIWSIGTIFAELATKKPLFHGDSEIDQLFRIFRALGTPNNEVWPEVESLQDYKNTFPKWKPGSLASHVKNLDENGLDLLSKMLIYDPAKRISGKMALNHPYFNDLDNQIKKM
T2 sequence (P14635 whole entry partner, species assumed): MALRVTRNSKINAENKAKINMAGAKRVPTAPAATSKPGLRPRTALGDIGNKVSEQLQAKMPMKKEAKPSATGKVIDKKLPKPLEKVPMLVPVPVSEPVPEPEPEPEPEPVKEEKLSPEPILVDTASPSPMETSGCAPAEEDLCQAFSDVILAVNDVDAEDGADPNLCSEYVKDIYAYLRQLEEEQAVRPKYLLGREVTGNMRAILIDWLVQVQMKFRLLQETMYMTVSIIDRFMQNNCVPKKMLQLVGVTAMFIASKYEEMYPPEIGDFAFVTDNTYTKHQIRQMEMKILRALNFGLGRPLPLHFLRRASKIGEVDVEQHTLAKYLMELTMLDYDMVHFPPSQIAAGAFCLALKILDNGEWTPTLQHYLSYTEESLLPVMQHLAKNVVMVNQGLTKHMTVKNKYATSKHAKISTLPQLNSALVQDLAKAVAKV
Description: as §1, §2

[5] = molecular target: T3, GST-CDK1-Cyclin B (Homo sapiens, UniProt P06493); experiment: Radioactive endpoint kinase assay with GST-CDK1-Cyclin B; assay type: biochemical; details: radioactive gamma-ATP, 30 min at 30° C., histone H1 positive control
T3 construct: made in house; host or cells: E. coli
T3 sequence (P06493 whole entry, species assumed): as the sequence (P06493 whole entry, species assumed) above
T3 sequence (P14635 whole entry partner, species assumed): as the sequence (P14635 whole entry partner, species assumed) above

[6] = molecular target: Plk1 (Homo sapiens, UniProt P53350); experiment: Real-time fluorescence kinase assay with Plk1 kinase (specificity); assay type: biochemical; details: 25 nM CDKACTH1, 25, 50, 75 nM Plk1
Plk1, sequence (P53350 whole entry): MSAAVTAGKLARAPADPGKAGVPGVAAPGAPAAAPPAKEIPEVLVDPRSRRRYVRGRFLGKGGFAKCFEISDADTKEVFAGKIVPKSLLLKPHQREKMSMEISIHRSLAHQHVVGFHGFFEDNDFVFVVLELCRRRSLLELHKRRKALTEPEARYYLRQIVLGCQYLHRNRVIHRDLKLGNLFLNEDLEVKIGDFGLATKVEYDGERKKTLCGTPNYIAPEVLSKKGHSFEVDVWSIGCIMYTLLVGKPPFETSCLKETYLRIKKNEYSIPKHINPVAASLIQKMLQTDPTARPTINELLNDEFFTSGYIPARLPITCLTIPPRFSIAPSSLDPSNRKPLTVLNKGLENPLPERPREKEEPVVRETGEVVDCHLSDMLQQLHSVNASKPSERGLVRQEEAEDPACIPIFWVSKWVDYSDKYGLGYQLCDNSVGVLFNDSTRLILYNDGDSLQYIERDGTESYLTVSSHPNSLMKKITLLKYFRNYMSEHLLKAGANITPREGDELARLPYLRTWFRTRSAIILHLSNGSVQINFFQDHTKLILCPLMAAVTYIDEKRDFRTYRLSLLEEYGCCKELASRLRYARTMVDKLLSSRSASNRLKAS
Description: as §1, §2

[7] = molecular target: T4, CDK4/Cyclin D (Homo sapiens, UniProt P11802); experiment: Real-time fluorescence kinase assay with recombinant CDK4/Cyclin D; assay type: biochemical; details: dependent on MgCl2/ATP
T4 construct: made in house; host or cells: E. coli
T4 sequence (P11802 whole entry, species assumed): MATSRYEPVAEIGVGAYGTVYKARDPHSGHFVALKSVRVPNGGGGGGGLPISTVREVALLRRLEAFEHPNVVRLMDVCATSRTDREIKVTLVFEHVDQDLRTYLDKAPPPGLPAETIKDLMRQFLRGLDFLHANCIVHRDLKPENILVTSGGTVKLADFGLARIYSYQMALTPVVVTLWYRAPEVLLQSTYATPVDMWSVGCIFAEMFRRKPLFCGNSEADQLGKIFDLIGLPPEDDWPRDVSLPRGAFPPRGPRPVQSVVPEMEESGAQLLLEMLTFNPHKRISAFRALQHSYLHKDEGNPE
T4 sequence (P24385 whole entry partner, species assumed): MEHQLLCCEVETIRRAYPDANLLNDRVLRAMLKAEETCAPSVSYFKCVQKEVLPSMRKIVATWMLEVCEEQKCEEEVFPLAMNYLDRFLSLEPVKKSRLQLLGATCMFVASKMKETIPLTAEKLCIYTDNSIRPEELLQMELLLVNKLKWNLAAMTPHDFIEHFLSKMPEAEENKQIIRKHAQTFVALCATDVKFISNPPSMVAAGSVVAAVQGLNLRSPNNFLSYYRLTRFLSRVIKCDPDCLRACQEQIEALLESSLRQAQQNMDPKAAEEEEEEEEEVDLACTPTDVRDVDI
Description: as §1, §2

[8] = molecular target: T5, CDK2/Cyclin A (Homo sapiens, UniProt P24941); experiment: Real-time fluorescence kinase assay with recombinant active CDK2/Cyclin A; assay type: biochemical
T5 construct: made in house; host or cells: E. coli
Description: (§3) In order to characterize CDKACT-H1 biosensor in vitro, we first asked whether it could be used to monitor recombinant kinase activity in a real-time assay.
as §1, §3
In vitro characterization was performed as described in Example 2. […] Assays were performed at 30° C. for 1600s. Fluorescence emission of Cy5 was measured at 675 nm following excitation at 645 nm on Polarstar™ fluorimeter.
Assays were performed at 30° C. for 1600s. Fluorescence emission of Cy3 was measured at 590 nm following excitation at 544 nm on Polarstar™ fluorimeter.

Plk3, sequence (Q9H4B4 whole entry, species assumed): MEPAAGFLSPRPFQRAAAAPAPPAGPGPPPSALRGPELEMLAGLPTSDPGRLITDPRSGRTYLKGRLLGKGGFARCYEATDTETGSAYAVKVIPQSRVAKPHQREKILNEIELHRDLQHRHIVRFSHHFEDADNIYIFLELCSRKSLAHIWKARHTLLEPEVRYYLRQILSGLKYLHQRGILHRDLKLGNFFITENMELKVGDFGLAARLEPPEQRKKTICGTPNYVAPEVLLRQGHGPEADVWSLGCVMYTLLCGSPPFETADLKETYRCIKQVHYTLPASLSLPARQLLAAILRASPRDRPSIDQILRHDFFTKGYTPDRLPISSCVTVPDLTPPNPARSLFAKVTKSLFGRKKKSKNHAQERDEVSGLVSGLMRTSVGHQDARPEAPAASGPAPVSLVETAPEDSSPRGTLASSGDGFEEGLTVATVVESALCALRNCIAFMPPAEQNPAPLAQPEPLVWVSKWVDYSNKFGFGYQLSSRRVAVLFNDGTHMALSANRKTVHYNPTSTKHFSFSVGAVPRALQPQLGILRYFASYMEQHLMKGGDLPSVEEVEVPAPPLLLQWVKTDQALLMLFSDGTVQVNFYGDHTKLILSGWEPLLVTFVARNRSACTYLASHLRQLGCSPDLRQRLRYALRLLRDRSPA

B1: CDKACTH1 (protein)
chain: GEVVDSHLSDMLQQLHSVNASKPSERGLVRQEEAEDPASIPIFWVSKWVDYSDKYGLGYQLSDNSVGVLFNDSTRLILYNDGDSLQYIERDGTESYLTVSSHPNSLMKKITLLKYFRNYMSEHLLKAGANITPREGDELARLPYLRTWFRTRSAIILHLSNGSVQINFFQDHTKLILSPLMAAVTYIDEKRDFRTYRLSLLEEYGSSKELASRLRYARTMVDKLLSSRSASNRLKASPGAGGTGGLPGGGGCSTPKKAKKL
modifications: left off: a dimerising Fc or GST
change in CDKACTH1 fluorescence induced by the kinase [1]: did not induce any significant changes
solubility upon removal of the GST tag [2]: complete precipitation
phosphorylation of the biosensor in standard radioactive kinase assay [3]: is phosphorylated
phosphorylation of the biosensor by the kinase (fluorescence assay) [4]: indeed phosphorylated
sensor concentration giving the optimal response ([4]; for 50-100 nM CDK1/Cyclin B): 10 nM
phosphorylation of the biosensor in standard radioactive kinase assay [5]: is phosphorylated
change in CDKACTH1 fluorescence induced by the kinase [6]: did not induce any significant changes
change in CDKACTH1 fluorescence induced by the kinase [7]: reminiscent of CDK2/Cyclin A
sensor concentration giving the best response ([8]; for 25-50 nM CDK2/CyclinA): 25 nM

B2: unlabelled sensor: CDKACTH1 biosensor without fluorescent label, used as competitive substrate (protein)
chain: B1 chain
modifications: left off: a dimerising Fc or GST
competition assay: effect on phosphorylation of CDKACTH1 ([8]; 25 nM CDKACTH1-Cy3, 25 nM CDK2/Cyclin A, 25 or 100 nM unlabelled CDKACTH1, 25 or 500 nM histone): prevented full phosphorylation
